Results from the Immune Epitope Database (IEDB).
pIC50: −log10 of the molar value.

The sequences below were run against HLA-A*02:01 (assay: IEDB peptide-MHC binding, purified MHC/competitive/radioactivity; ≥ and ≤ were set here for values at or beyond the usual limits of such assays). Conditions: source organism: Influenza A virus.
RTMAWTVVNSI showed a pIC50 of 6.19. Sequence QLMWALGENMA has a pIC50 of 6.07.

Same assay, conditions: source organism: Mammarenavirus brazilense
With ALIAVSLIA the pIC50 was 5.96.

Same assay, conditions: source organism: Mammarenavirus choriomeningitidis
YIACRTSIV showed a pIC50 of 7.34. For NLNQVIQSV, the pIC50 was 7.55.

Same assay, conditions: source organism: Mammarenavirus juninense
In the case of GLFQFFVFLA, the pIC50 was 7.59. In the case of GLHTEFQTV, the pIC50 was 6.89. SLKAFFSWSL gave a pIC50 of 5.80. With SLIAIIKGV the pIC50 was 7.92. For FQTVSFSMV, the pIC50 was 6.74.

Same assay, conditions: source organism: Mammarenavirus lassaense
With SLQSAGFTA the pIC50 was 5.90. ALMDCIMFDA gave a pIC50 of 8.96.

Same assay, conditions: source organism: Mammarenavirus machupoense
FTASLFLHLV gave a pIC50 of 7.12. MVDEEPAAL gave a pIC50 of 6.00.

Same assay, conditions: source organism: Mammarenavirus whitewaterense
FTMEWFLSGL showed a pIC50 of 7.15. With GLLQFIVFLL the pIC50 was 6.62. In the case of LLQFIVFLL, the pIC50 was 6.80. Work on YVSSIFLHL yielded a pIC50 of 6.80. With FLLRGPFEA the pIC50 was 7.96. Work on MIITAVNSL yielded a pIC50 of 5.61.

Same assay, conditions: source organism: Vaccinia virus WR
LIMYSVIGV showed a pIC50 of 9.26. Work on LLEAVYGNI yielded a pIC50 of 6.06. MIYGLIACL showed a pIC50 of 8.07. In the case of FVFAWFNGV, the pIC50 was 9.42. In the case of IILLFDFSI, the pIC50 was 6.79. Work on LVDICDRIV yielded a pIC50 of 5.67. RLFSYNFTT was tested, and the pIC50 was 9.64. FIADIGIGV gave a pIC50 of 9.52. FLIVSLCPT gave a pIC50 of 8.82. In the case of LLSKNTFYL, the pIC50 was 8.51. Sequence FTSSFYNYV has a pIC50 of 9.34. Sequence SVSESNIDL has a pIC50 of 6.24. In the case of GLSGDSERV, the pIC50 was 6.20. With FTLIDIWFL the pIC50 was 9.31. FIFTGITLFL gave a pIC50 of 9.04. Work on RTVIHLEWL yielded a pIC50 of 6.29. GAENIVFNL showed a pIC50 of 5.33. With AIIAIVFVFI the pIC50 was 6.03. YIDALAKNA showed a pIC50 of 6.33. YVMTMILFL gave a pIC50 of 10.19. HIFYQLANV showed a pIC50 of 8.24. Work on YQYVRLHEM yielded a pIC50 of 8.04. AIFTDASTV gave a pIC50 of 6.16. YLCTFMIIT showed a pIC50 of 7.06. Work on IQESFIRFTV yielded a pIC50 of 7.77. With NLNIVRDMLV the pIC50 was 7.55. Work on SLNLTIVSV yielded a pIC50 of 7.59. Sequence ILDDNLYKV has a pIC50 of 8.89. FVFRSPFIVI showed a pIC50 of 6.77. Work on KLSDVGHQYA yielded a pIC50 of 7.68. YILHSDYQL was tested, and the pIC50 was 7.89. For FIIEVSNCV, the pIC50 was 7.89. Sequence SLLDEDSKI has a pIC50 of 7.00. Work on LIFFVIILA yielded a pIC50 of 6.63. SITKEKIKI gave a pIC50 of 5.32. AIYSAILLLV showed a pIC50 of 7.28. In the case of AVKDKNWTV, the pIC50 was 5.74. In the case of NVDSTDELM, the pIC50 was 5.71. Sequence ALTNAQFFV has a pIC50 of 8.89. In the case of FAAELTIGV, the pIC50 was 9.49. With YTYFSNTILL the pIC50 was 6.72. For KLYLVDYGL, the pIC50 was 7.89. TLDNILGIL was tested, and the pIC50 was 7.17. In the case of FTLNHVLAL, the pIC50 was 8.82. YLTVSFIDET showed a pIC50 of 5.32. Sequence KQFIQRGGL has a pIC50 of 5.40. Sequence IIDFLEGAL has a pIC50 of 6.04. QLVDAIDNIV showed a pIC50 of 7.00. FTISMRYQSL was tested, and the pIC50 was 5.37. RVNVFETRI was tested, and the pIC50 was 5.71. With TLDTAIFTDA the pIC50 was 7.30. In the case of KILSASNRL, the pIC50 was 6.12. FLSRVFFCV was tested, and the pIC50 was 9.09. With ALATFTVNI the pIC50 was 9.22. With GLDVKNVQL the pIC50 was 6.56. In the case of LTNEIYASI, the pIC50 was 6.06. IMFKDDNII was tested, and the pIC50 was 6.63. TINCDVGYEV showed a pIC50 of 6.41. In the case of YLLAVCGCI, the pIC50 was 7.89. SASVFYRGA was tested, and the pIC50 was 5.69. LLLETKTILV showed a pIC50 of 8.48. With LQISQCQRI the pIC50 was 5.86. RISMVISLL was tested, and the pIC50 was 5.84. LLLWPLYVL showed a pIC50 of 9.68. In the case of TLFDDELYSI, the pIC50 was 8.96. Sequence MMWDLKKKGL has a pIC50 of 6.99. AMFTTMYNI gave a pIC50 of 8.55. With AAMYQYIFL the pIC50 was 6.16. Sequence TIGNQLYLTV has a pIC50 of 7.74. FLKDVMVEI gave a pIC50 of 8.52. In the case of PITDSLSFKL, the pIC50 was 5.58. In the case of YLYQPCDLL, the pIC50 was 8.74. MLMFIFTGI gave a pIC50 of 9.42. With RMILYLESV the pIC50 was 8.74. Sequence YLLSLFSTLV has a pIC50 of 9.49. ITNGYLISI gave a pIC50 of 7.27. For NAPIKTFML, the pIC50 was 5.47. With NTIDQTANV the pIC50 was 6.79. With RIPNSLHSL the pIC50 was 6.17. LVDNVDFATI was tested, and the pIC50 was 5.44. SLHSLSVET gave a pIC50 of 6.58. Work on NMNYSDDYMM yielded a pIC50 of 5.58. VIHDYICWL was tested, and the pIC50 was 7.92. Sequence VVTLLCVLPA has a pIC50 of 6.58. With TTLSRHIFMA the pIC50 was 6.40. KLLISKGIEI gave a pIC50 of 6.88. With RVFNEYGFVL the pIC50 was 6.27. MLIEVILTA showed a pIC50 of 8.30. FLEGALIANI showed a pIC50 of 7.52. Sequence SMISRHCCI has a pIC50 of 6.01. With KLIGITAIM the pIC50 was 7.70. With YIIKKNDIV the pIC50 was 5.70. YIFAALGGSV was tested, and the pIC50 was 7.35. KLVDICDRI showed a pIC50 of 8.16. YLFRIVSTV was tested, and the pIC50 was 8.92. VVVPIKFIA showed a pIC50 of 5.55. For TIATYIDAL, the pIC50 was 6.21. In the case of LMMTLPSIFL, the pIC50 was 9.70. Work on IMLNGIMYRL yielded a pIC50 of 7.85. For QTCAGVIEYA, the pIC50 was 6.44. With MMMMKWIISI the pIC50 was 8.00. For NLVKWPLLNI, the pIC50 was 6.84. IILVIIVVI showed a pIC50 of 6.38. Work on FIHGGILYA yielded a pIC50 of 8.06. Sequence AIIGLCAYA has a pIC50 of 7.09. In the case of YLSSWTPVV, the pIC50 was 9.48. Sequence ILWFFNAMVL has a pIC50 of 7.96. In the case of IVIGVIILA, the pIC50 was 6.18. KLTDSLSSQM was tested, and the pIC50 was 6.03. NISTILYFT gave a pIC50 of 6.89.
